Target: hexon protein of recombinant chimpanzee adenovirus C68 (AdC68), free hexon trimer (AEX-HPLC "impurity" peak) (chimpanzee adenovirus C68)
Test: native MS; native SEC-HPLC/MS of the AEX-HPLC "impurity" fraction; BEH SEC 200Å column, isocratic 40 mM ammonium formate, 25°C; Orbitrap EMR, gentle source parameters to keep non-covalent complexes assembled

## hexon protein of recombinant chimpanzee adenovirus C68 (AdC68), free hexon trimer (AEX-HPLC "impurity" peak) (natural protein)
  stoichiometry N: 3

From article PMC9017566
